Experimental data reported in paper PMC9588639 (Journal of thrombosis and haemostasis : JTH, 2022).

Key:
Test in all cases: BLI
[1] = target: mouse GPIbα LBD (mLBD, residues 1-290) (mouse)
[2] = target: human GPIbα LBD (mature protein residues 1-290) (human)
[3] = target: human GPIbα LBD (mature protein residues 1-290) W230L (human, UniProt P07359 17-306, W230L)
Sequence of human GPIbα LBD (mature protein residues 1-290) W230L (P07359 17-306 W246L): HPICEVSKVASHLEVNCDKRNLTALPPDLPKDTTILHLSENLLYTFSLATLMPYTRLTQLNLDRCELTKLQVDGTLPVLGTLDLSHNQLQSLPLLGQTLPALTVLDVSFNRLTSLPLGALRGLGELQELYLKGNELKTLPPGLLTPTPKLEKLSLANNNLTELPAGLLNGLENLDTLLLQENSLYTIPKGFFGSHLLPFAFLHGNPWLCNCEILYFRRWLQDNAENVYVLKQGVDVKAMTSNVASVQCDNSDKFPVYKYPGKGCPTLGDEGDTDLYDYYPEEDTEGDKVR

Sequence of mouse GPIbα LBD (mLBD, residues 1-290) (mouse) (O35930 whole entry, the tested form may be a part): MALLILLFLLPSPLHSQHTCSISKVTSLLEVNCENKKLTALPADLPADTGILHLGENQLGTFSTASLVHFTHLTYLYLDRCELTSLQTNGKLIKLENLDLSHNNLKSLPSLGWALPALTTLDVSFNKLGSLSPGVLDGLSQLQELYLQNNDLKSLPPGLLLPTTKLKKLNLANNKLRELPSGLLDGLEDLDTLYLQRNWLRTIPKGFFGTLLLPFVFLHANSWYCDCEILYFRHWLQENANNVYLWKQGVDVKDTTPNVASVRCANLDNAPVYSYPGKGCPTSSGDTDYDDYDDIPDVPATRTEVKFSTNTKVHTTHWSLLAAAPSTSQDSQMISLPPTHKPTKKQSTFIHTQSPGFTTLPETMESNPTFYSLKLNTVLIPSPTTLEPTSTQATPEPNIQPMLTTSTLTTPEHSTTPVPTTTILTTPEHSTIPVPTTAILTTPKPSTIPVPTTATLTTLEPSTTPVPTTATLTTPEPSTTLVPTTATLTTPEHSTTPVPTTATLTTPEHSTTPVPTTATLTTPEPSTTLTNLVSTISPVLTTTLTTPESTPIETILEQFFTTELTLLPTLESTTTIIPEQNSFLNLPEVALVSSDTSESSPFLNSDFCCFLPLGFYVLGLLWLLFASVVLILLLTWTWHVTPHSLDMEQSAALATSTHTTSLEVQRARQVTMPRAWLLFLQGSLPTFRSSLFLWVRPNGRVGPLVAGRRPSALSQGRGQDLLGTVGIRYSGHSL

Row | Kd [1] [nM] | Kd [2] [nM] | binding result [3] | Molecule
1 | 386 | – | – | mouse tAIM-A1 (containing VWF residues 1261-1472) (from UniProt Q8CIZ8 1261-1472) (domain or fragment)
2 | 1000 | 515 | binds | recombinant mouse AIM-A1 protein (mouse VWF residues 1238-1493) (domain or fragment, UniProt Q8CIZ8 1238-1493, looked up) QEPGGLVAPPTDAPVSSTTPYVEDTPEPPLHNFYCSKLLDLVFLLDGSSMLSEAEFEVLKAFVVGMMERLHISQKRIRVAVVEYHDGSRAYLELKARKRPSELRRITSQIKYTGSQVASTSEVLKYTLFQIFGKIDRPEASHITLLLTASQEPPRMARNLVRYVQGLKKKKVIVIPVGIGPHASLKQIRLIEKQAPENKAFLLSGVDELEQRRDEIVSYLCDLAPEAPAPTQPPQVAHVTVSPGIAGISSPGPKRK
